Laboratory results from US20240190987A1, “Engineered EpCam Binding Antibodies” (TigaTX, priority 2021, published 2024).
Substitutions are numbered along the chain they refer to.

T1: huEpCAM ECD Ag0065 (human) (UniProt P16422)
T1 sequence: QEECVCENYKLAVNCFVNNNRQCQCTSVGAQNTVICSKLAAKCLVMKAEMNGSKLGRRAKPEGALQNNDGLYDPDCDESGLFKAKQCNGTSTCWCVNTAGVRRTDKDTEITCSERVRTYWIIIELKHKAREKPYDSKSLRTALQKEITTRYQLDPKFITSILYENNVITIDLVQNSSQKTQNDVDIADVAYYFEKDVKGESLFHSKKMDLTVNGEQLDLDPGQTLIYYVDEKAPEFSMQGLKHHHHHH

B1: Ab0785 (Fab, V domains shown)
VH: QVQLVQSGAEVKKPGASVKVSCKASGYTFTSYWMHWVRQHPGQGLEWMGIIHPNSGGTSYAQKFQGRVTMTRDTSTSTVYMELSSLRSEDTAVYYCAMGDYVSRDYWGQGTLVTVSS
VL: EIVLTQSPGTLSLSPGERATLSCRASSSVSSSYLHWYQQKPGQAPRLLIYSTSSRATGIPDRFSGSGSGTDFTLTISRLEPEDFAVYYCQQYSGYQFTFGQGTKLEIK
modifications: chain 1 pos 246: the Lys of the Avi-tag is biotinylated where biotinylated-Ab0785 was captured on streptavidin sensors; written K
B2: Ab0788 (Fab, V domains shown)
VH: B1 VH with S59N
VL: B1 VL
B3: Ab1044 (antibody, V domains shown)
VH: EVQLVESGGGLVQPGGSLRLSCAASGFDFSSYSIHWVRQAPGKGLEWVAAISPYYGSTYYADSVKGRFTISADTSKNTAYLQMNSLRAEDTAVYYCARYYEWYKYDLYAGSLGFDYWGQGTLVTVSS
VL: DIQMTQSPSSLSASVGDRVTITCRASQSVSSAVAWYQQKPGKAPKLLIYSASSLYSGVPSRFSGSRSGTDFTLTISSLQPEDFATYYCQQGGYSLITFGQGTKVEIK
B4: Ab0637 (antibody, V domains shown)
VH: B3 VH with A50S, D106S, A109L
VL: B3 VL
B5: Ab1071 (Fab, V domains shown)
VH: B3 VH with A50S
VL: B3 VL
B6: Ab1047 (antibody, V domains shown)
VH: B3 VH with Y59A, Y99A
VL: B3 VL
B7: Ab0935 (antibody, V domains shown)
VH: B3 VH with Y32A, A50S, A109L
VL: B3 VL
B8: Ab0938 (antibody, V domains shown)
VH: B3 VH with A50S, S52A, A109L
VL: B3 VL
B9: Ab0948 (antibody, V domains shown)
VH: B3 VH with A50S, A109L, Y116A
VL: B3 VL
B10: Ab0943 (antibody, V domains shown)
VH: B3 VH with A50S, K104A, A109L
VL: B3 VL
B11: Ab0941 (antibody, V domains shown)
VH: B3 VH with A50S, S57A, A109L
VL: B3 VL
B12: Ab0942 (antibody, V domains shown)
VH: B3 VH with A50S, E101A, A109L
VL: B3 VL
B13: Ab0944 (antibody, V domains shown)
VH: B3 VH with A50S, D106A, A109L
VL: B3 VL
B14: Ab0936 (antibody, V domains shown)
VH: B3 VH with A109L
VL: B3 VL
B15: Ab0940 (antibody, V domains shown)
VH: B3 VH with A50S, G56A, A109L
VL: B3 VL
B16: Ab0939 (antibody, V domains shown)
VH: B3 VH with A50S, P53A, A109L
VL: B3 VL
B17: Ab0947 (antibody, V domains shown)
VH: B3 VH with A50S, A109L, D115A
VL: B3 VL
B18: Ab0946 (antibody, V domains shown)
VH: B3 VH with A50S, A109L, G113A
VL: B3 VL
B19: Ab0706 (antibody, V domains shown)
VH: B3 VH with A50S, D106S, Y108N, A109L
VL: B3 VL
B20: Ab0707 (antibody, V domains shown)
VH: B3 VH with A50S, D106S, Y108D, A109L
VL: B3 VL
B21: Ab1012 (antibody, V domains shown)
VH: EVQLVESGGGLVQPGGSLRLSCAASGFTFSSYWMNWVRQAPGKGLEWVAQIRVKSENFATHYADSVKGRFTISRDDSKSTVYLQMNSLRAEDTAVYYCTLYDGFSWGQGTLVTVSS
VL: DIQMTQSPSSLSASVGDRVTITCSASSSVSSGNFHWYQQKPGKAPKLLIYRTSNLASGVPSRFSGSGSGTDYTLTISSLQPEDFATYYCQQWSGYPYTFGQGTKVEIK
B22: Ab1019 (antibody, V domains shown)
VH: B21 VH with S31N, G103A
VL: B21 VL
B23: Ab1017 (antibody, V domains shown)
VH: B21 VH with S31N, N35S
VL: B21 VL
B24: Ab1024 (antibody, V domains shown)
VH: B21 VH with S31N, A63V
VL: B21 VL
B25: Ab1018 (antibody, V domains shown)
VH: B21 VH with S31N, D102E
VL: B21 VL
B26: Ab1016 (antibody, V domains shown)
VH: B21 VH with S31N, W33Y
VL: B21 VL
B27: Ab1021 (antibody, V domains shown)
VH: B21 VH with S31N, A40S
VL: B21 VL
B28: Ab1023 (antibody, V domains shown)
VH: B21 VH with S31N, S55Y
VL: B21 VL
B29: Ab1011 (antibody, V domains shown)
VH: B21 VH with S31N, L100R
VL: DIQMTQSPSSLSASVGDRVTITCSASSSVSSGNFHWYQQKPGKAPKLLIYRTSNLASGVPSRFSGSGSGTDYTLTISSLQPEDFATYYCQQWSGYPYTFGQGTKVEIKR
B30: Ab1066 (antibody, V domains shown)
VH: B21 VH with S31N, G103A
VL: B21 VL with W92A

These binders were tested against Ab0670 (assay: 5-pt kinetics).

| Kd | Binder |
| --- | --- |
| 29 nM | B1 |
| 86 nM | B2 |

Each binder was assayed against Ab0787 (assay: BLI 5-pt +indinavir).

| Kd | Binder |
| --- | --- |
| 2.3 nM | B3 |

The binders below were run against Ab0223 (assay: BLI 5-pt +indinavir).

| Kd | Binder |
| --- | --- |
| 5.9 nM | B4 |

These binders were tested against Ab0786 (assay: BLI 5-pt +indinavir).

| Kd | Binder |
| --- | --- |
| 8.6 nM | B3 |

What follows are binders tested against Ab0785 (assay: BLI +indinavir).

| Kd | Binder |
| --- | --- |
| 2.4 nM | B5 |

Each binder was assayed against Ab0787 (assay: BLI 1-pt +indinavir).

| Kd | Binder |
| --- | --- |
| 47 nM | B6 |
| 5.1 nM | B3 |

The binders below were run against Ab0223 (assay: BLI 1-pt +indinavir).
Target sequence in this assay (VH, as listed by the source limits assumed, form in doubt, chain 1 of 2): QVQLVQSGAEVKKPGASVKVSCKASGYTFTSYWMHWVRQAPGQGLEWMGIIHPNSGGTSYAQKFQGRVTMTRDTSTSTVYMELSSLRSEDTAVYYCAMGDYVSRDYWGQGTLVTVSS
Target sequence in this assay (VL, as listed by the source limits assumed, form in doubt, chain 2 of 2): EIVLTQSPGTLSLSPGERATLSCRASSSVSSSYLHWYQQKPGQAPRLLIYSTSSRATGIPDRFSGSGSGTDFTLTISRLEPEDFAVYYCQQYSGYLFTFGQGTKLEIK

| Kd | Binder |
| --- | --- |
| 230 nM | B7 |
| 310 nM | B8 |
| 7.3 nM | B9 |
| 130 nM | B10 |
| 3.7 nM | B11 |
| 210 nM | B12 |
| 7.1 nM | B13 |
| < 1 nM | B14 |
| 10 nM | B15 |
| 3.7 nM | B16 |
| 52 nM | B17 |
| 50 nM | B18 |

These binders were tested against Ab0786 (assay: BLI 1-pt +indinavir).

| Kd | Binder |
| --- | --- |
| 8.2 nM | B3 |

What follows are binders tested against Ab0223 (assay: BLI 3-pt +indinavir).

| Kd | Binder |
| --- | --- |
| 89 nM | B19 |
| 72 nM | B20 |
| 5.4 nM | B4 |

The binders below were run against T1, huEpCAM ECD Ag0065 (human) (assay: SPR single-cycle).

| Kd | Binder |
| --- | --- |
| 9.7 nM | B21 |
| 2.5 nM | B22 |
| 7.6 nM | B23 |
| 2.3 nM | B24 |
| 3 nM | B25 |
| 7.2 nM | B26 |
| 3.1 nM | B27 |
| 2 nM | B28 |

The binders below were run against cyEpCAM ECD Ag0066 (cyno) (assay: SPR single-cycle).

| Kd | Binder |
| --- | --- |
| 9.9 nM | B29 |
| 6.2 nM | B21 |
| 2 nM | B22 |
| 4.5 nM | B23 |
| 2 nM | B24 |
| 2.1 nM | B25 |
| 7.7 nM | B26 |
| 2.3 nM | B27 |
| 0.9 nM | B28 |

Target: Ab0223
Test: BLI 5-pt +indinavir
Remark: another data set of the same source

| Kd | Binder |
| --- | --- |
| 3.7 nM | B4 |

Each binder was assayed against T1, huEpCAM ECD Ag0065 (human) (assay: SPR multi-cycle).

| Kd | Binder |
| --- | --- |
| 5.7 nM | B30 |
| 1.8 nM | B22 |
| 1.6 nM | B24 |
| 2.8 nM | B25 |

What follows are binders tested against cyEpCAM ECD Ag0066 (cyno) (assay: SPR multi-cycle).

| Kd | Binder |
| --- | --- |
| 3 nM | B30 |
| 1.1 nM | B22 |
| 0.94 nM | B24 |
| 1.6 nM | B25 |
